Read-outs that look alike come from different tables or passages of the source.
B1: dsDNA (145 bp 601, unmodified) (dsDNA)
DNA 1: ATCGATGTATATATCTGACACGTGCCTGGAGACTAGGGAGTAATCCCCTTGGCGGTTAAAACGCGGGGGACAGCGCGTACGTGCGTTTGAGCGGTGCTAGAGCTGTCTACGACCAATTGAGCGGCCTCGGCACCGGGATTCTGAT
DNA 2: ATCAGAATCCCGGTGCCGAGGCCGCTCAATTGGTCGTAGACAGCTCTAGCACCGCTCAAACGCACGTACGCGCTGTCCCCCGCGTTTTAACCGCCAAGGGGATTACTCCCTAGTCTCCAGGCACGTGTCAGATATATACATCGAT
B2: dsDNA-8-oxodGuo-73 (dsDNA)
DNA 1: ATCGATGTATATATCTGACACGTGCCTGGAGACTAGGGAGTAATCCCCTTGGCGGTTAAAACGCGGGGGACAGCGCGTACGTGCGTTTGAGCGGTGCTAGAGCTGTCTACGACCAATTGAGCGGCCTCGGCACCGGGATTCTGAT
DNA 2: ATCAGAATCCCGGTGCCGAGGCCGCTCAATTGGTCGTAGACAGCTCTAGCACCGCTCAAACGCACGTACGCGCTGTCCCCCGCGTTTTAACCGCCAAGGGGATTACTCCCTAGTCTCCAGGCACGTGTCAGATATATACATCGAT
modifications: 8-oxodGuo at G73 of strand 1
B3: dsDNA-8-oxodGuo-89 (dsDNA)
DNA 1: ATCGATGTATATATCTGACACGTGCCTGGAGACTAGGGAGTAATCCCCTTGGCGGTTAAAACGCGGGGGACAGCGCGTACGTGCGTTTGAGCGGTGCTAGAGCTGTCTACGACCAATTGAGCGGCCTCGGCACCGGGATTCTGAT
DNA 2: ATCAGAATCCCGGTGCCGAGGCCGCTCAATTGGTCGTAGACAGCTCTAGCACCGCTCAAACGCACGTACGCGCTGTCCCCCGCGTTTTAACCGCCAAGGGGATTACTCCCTAGTCTCCAGGCACGTGTCAGATATATACATCGAT
modifications: 8-oxodGuo at G89 of strand 1
B4: dsDNA-8-oxodGuo-137 (dsDNA)
DNA 1: ATCGATGTATATATCTGACACGTGCCTGGAGACTAGGGAGTAATCCCCTTGGCGGTTAAAACGCGGGGGACAGCGCGTACGTGCGTTTGAGCGGTGCTAGAGCTGTCTACGACCAATTGAGCGGCCTCGGCACCGGGATTCTGAT
DNA 2: ATCAGAATCCCGGTGCCGAGGCCGCTCAATTGGTCGTAGACAGCTCTAGCACCGCTCAAACGCACGTACGCGCTGTCCCCCGCGTTTTAACCGCCAAGGGGATTACTCCCTAGTCTCCAGGCACGTGTCAGATATATACATCGAT
modifications: 8-oxodGuo at G137 of strand 1

Legend:
[1] = target: T1, hOGG1 K249Q (catalytically inactive) (Homo sapiens, UniProt O15527 1-345, K249Q); experiment: EMSA
T1 sequence (O15527 whole entry K249Q): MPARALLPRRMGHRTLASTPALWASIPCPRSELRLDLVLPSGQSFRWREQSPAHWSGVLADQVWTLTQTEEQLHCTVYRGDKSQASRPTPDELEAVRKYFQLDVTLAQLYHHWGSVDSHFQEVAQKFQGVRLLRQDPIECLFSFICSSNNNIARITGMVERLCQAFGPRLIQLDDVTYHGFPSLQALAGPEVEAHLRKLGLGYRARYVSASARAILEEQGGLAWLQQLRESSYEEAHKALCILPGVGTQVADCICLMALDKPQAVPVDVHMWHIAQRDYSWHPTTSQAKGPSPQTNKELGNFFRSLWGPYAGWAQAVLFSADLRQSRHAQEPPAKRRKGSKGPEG

[2] = target: T1, hOGG1 K249Q (catalytically inactive); experiment: EMSA; remark: listed apart in the source

Row | Binder | Kd [1] | Kd [2]
1 | B1 | 1310 ± 200 nM | –
2 | B2 | – | 240 ± 10 nM
3 | B3 | – | 300 ± 10 nM
4 | B4 | – | 420 ± 20 nM

— paper PMC11526172
